We go through 2 molecules from PMC12218935, “Opposing role of phagocytic receptors MERTK and AXL in Progranulin deficient FTD” (Communications Biology, 2025).

In test [1] the target is T1, Fc-Mer (MERTK Fc chimera) (human, UniProt Q12866 21-505).
T1 chain: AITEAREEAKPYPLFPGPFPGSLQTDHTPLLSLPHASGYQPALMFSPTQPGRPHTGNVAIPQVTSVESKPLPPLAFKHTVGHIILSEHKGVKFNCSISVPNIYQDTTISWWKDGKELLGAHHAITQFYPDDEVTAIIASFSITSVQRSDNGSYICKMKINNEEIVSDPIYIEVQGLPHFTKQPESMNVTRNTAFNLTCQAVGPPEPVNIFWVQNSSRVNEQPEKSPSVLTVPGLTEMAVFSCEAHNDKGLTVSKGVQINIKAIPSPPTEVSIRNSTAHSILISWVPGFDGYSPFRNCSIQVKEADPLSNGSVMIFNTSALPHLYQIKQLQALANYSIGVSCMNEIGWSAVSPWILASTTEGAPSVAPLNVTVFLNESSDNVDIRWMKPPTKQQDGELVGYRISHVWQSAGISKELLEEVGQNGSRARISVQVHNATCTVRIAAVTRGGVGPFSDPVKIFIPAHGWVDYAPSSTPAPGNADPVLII
The experiment in a line: SPR.

Test [2] concerns the target T2, Gas6, recombinant human, His-tagged (human, UniProt Q14393 31-678).
T2 construct: human GAS6, recombinant, bought from R&D Systems; Limits and the end of the tag are in the vendor's data sheet; also called H6-tagged-GAS6; source: bought: R&D Systems (885-GSB-050)
T2 sequence (looked up): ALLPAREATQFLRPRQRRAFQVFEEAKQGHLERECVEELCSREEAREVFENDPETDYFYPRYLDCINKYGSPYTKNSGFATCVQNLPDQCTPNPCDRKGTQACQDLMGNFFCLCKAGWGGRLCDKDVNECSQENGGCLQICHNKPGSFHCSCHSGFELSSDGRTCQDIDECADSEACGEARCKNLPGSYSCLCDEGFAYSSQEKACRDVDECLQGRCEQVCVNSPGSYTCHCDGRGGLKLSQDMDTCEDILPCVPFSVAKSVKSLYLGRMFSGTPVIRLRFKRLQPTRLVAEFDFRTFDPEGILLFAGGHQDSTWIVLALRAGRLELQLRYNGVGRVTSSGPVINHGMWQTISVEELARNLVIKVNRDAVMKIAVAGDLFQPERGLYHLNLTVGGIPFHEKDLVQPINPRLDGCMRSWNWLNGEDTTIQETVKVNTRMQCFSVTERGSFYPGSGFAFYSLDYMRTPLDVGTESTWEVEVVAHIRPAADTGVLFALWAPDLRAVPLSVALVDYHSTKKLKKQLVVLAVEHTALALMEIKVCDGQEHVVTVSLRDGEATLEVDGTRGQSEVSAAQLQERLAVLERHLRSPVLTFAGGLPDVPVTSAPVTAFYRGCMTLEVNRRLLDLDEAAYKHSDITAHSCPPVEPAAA
The experiment in a line: SPR; Biacore T200, CM5 chip; Protein A amine-coupled (2300 RU), Fc-Mer (150 RU) or Fc-Axl (140 RU) captured; Gas6 or PGRN injected at 20 uL/min for 500 s, 1000 s dissociation; HBS-EP+ with 1.5 mM CaCl2 and 0.1% BSA; 1:1 kinetic model. To be noted: both partners purified. (In SPR one partner is held on a chip, and binding of the other changes the refractive index at the surface.)

B1: Gas6, recombinant human, His-tagged (ligand)
chain: T2 sequence (looked up)
What is called koff is a measure of how fast the partners let go of each other. High values mean fast dissociation, low ones slow dissociation. Regarding B1, in test [1], the koff came to 0.000888 s⁻¹.

B2: Fc-Mer (MERTK Fc chimera) (Fc fusion, human, UniProt Q12866 21-505, looked up)
chain: T1 chain
notes: human MERTK (Mer) part of the bought Fc chimera; Captured on Protein A by its Fc; As far as I recall the vendor's product is the extracellular domain of human Mer fused to human IgG1 Fc at the C-terminus; limits are in the vendor's data sheet; source: bought: R&D Systems (891-MR-100)
A word on the Kd: it is the equilibrium constant for the complex coming apart. As for B2, the Kd in test [2] stood at 27.7 nM.
